Test results from article PMC4863600.

Target: D. radiodurans DNA gyrase holoenzyme (reconstituted from GyrA::6His and 6His::GyrB) (D. radiodurans) (UniProt Q9RT53)

B1: PprA::6His protein (natural protein)
chain: MLPLAFLICSGHNKGSMARAKAKDQTDGIYAAFDTLMSTAGVDSQIAALAASEADAGTLDAALTQSLQEAQGRWGLGLHHLRHEARLTDDGDIEILTDGRPSARVSEGFGALAQAYAPMQALDERGLSQWAALGEGYRAPGDLPLAQLKVLIEHARDFETDWSAGRGETFQRVWRKGDTLFVEVARPASAEAALSDAAWDVIASIKDRAFQRELMRRSEKDGMLGALLGARHAGAKANLAQLPEAHFTVQAFVQTLSGAAARNAEEYRAALKTAAAALEEYQGVTTRQLSEVLRHGLRES
decatenation of kDNA by DNA gyrase (4 nM) with increasing concentrations of PprA; ratio of minicircles released with PprA over without PprA: 7 fold
